Experimental data reported in the supplement of paper PMC10567573.
± gives the standard deviation.

Assay: protein stability index of a GFP-peptide fusion (GPS, HEK-293T) (PSI 1-6); higher = more stable
[1] = treatment: DMSO, c terminus: a fixed tail appended
[2] = treatment: MLN4924 1 uM, 8 h, c terminus: a fixed tail appended
[3] = treatment: DMSO, c terminus: native
[4] = treatment: MLN4924 1 uM, 8 h, c terminus: native
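Further: 24-mer peptide tiles fused after GFP, lentivirally expressed, FACS-sorted into six equal bins by GFP/DsRed ratio, decoded by Illumina sequencing, PSI is the read-weighted mean bin number.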

Sequence	protein stability index [1]	protein stability index [2]	protein stability index [3]	protein stability index [4]
GVCYSESQSSASQPRLSYAEMAED [CLCN6]	5.11 ± 0.23	5.28 ± 0.31	–	–
GVSEILLKTQMKMSLKCLAARAVR [FEM1B]	2.65 ± 0.56	2.58 ± 0.26	–	–
GYDGLNILNSVEKYDPHTGHWTNV [KLHL12]	2.75 ± 0.42	3.05 ± 0.19	–	–
GYFFPTSARDCKFTGNFFYNYMMG [DHCR7]	2.36 ± 0.38	2.36 ± 0.21	–	–
HAPGVPKILVGNRLHLAFKRQVPR [RAB40A]	2.58 ± 0.28	2.88 ± 0.31	–	–
HCIQQILEAVLHCHQMGVVHRDLK [CAMK2B]	2.6 ± 0.7	2.95 ± 0.37	–	–
HDFLSDLFSDDYGGKNCKKPAEYG [CEBPB]	3.83 ± 0.16	3.8 ± 0.17	–	–
HDGKPSEGSYRIHVLHHGTGKWYE [USP39]	2.71 ± 0.2	2.88 ± 0.16	–	–
HDHLTLSVSRPEGRSWPSAPDDSK [PDLIM4]	5.15 ± 0.093	5.06 ± 0.072	–	–
HEVLLCSDLVKAYQRCVSAAHKG [CHCHD6]	–	–	2.56 ± 0.75	2.27 ± 0.45
HFKKTKKMGGKDFSFRYQQELEEE [ATL3]	2.59 ± 0.56	3.54 ± 0.81	–	–
HFQPNSPASDLEAALEAAGEGLNV [NANOGP8]	5.05 ± 0.26	5.24 ± 0.28	–	–
HFRPRFHPLPTVIIVNLLWFIHLV [TMEM192]	2.63 ± 0.48	2.82 ± 0.79	–	–
HGQLDDLIFIFYKNGLPSPERSYV [PPEF2]	2.88 ± 0.41	2.35 ± 0.44	–	–
HGRARIARLMLESEYRSDIINAKS [ASB7]	3.05 ± 0.3	3.18 ± 0.23	–	–
HGRGTEVLLEEPLPLETARESPSF [ZNF263]	4.69 ± 0.28	4.81 ± 0.25	–	–
HKKTTHKLNCDPSRIYKPQTRLKR [DFFB]	4.07 ± 0.28	4.22 ± 0.25	–	–
HKRAIMPYGVYKKQQKDPSEEAAV [ATE1]	4.3 ± 0.32	4.44 ± 0.11	–	–
HLEINPDHPIVETLRQKAEADKND [HSP90AB1]	5.58 ± 0.2	5.56 ± 0.1	–	–
HLPWQYHAGQGGLFYSAEVEMLCD [CCDC3]	2.94 ± 0.44	2.52 ± 0.2	–	–
HMAKERAHSTASHSSSNSEDTEM [PDZK1]	–	–	5.48 ± 0.26	5.39 ± 0.27
HNCVDLMQAAEVFSQKHFPEVVQH [KLHL12]	3.17 ± 0.16	3.14 ± 0.38	–	–

Sequence	protein stability index [1]	protein stability index [2]	protein stability index [3]	protein stability index [4]
HNRKVLTIFSASNYYEVGSNRGAY [PPEF2]	2.44 ± 0.28	2.46 ± 0.24	–	–
HPAATALHAELCQAGSSQGLSLCQ [LPCAT4]	4.22 ± 0.29	4.13 ± 0.16	–	–
HPIEEAAEEHREKLLKQMRILWKK [TRIM43]	3.45 ± 0.39	3.7 ± 0.58	–	–
HPLAYGMVGPLAQDPQSPMAGLRW [POMT2]	2.85 ± 0.39	2.77 ± 0.18	–	–
HQDVDLVCINLPPPLTRQIAVKTL [GFOD1]	2.47 ± 0.33	2.53 ± 0.27	–	–
HRQETVDCLKKFNARRKLKGAILT [CAMK2D]	2.69 ± 0.52	2.71 ± 0.22	–	–
HSEKMAQYLEEERHMREENLRLQR [CCDC6]	4.91 ± 0.07	4.56 ± 0.25	–	–
HSGYDFGYLIKILTNSNLPEEELD [CNOT7]	2.27 ± 0.19	2.48 ± 0.3	–	–
HSLERAGSKQYSAAIAFTLALFSH [SMG5]	2.48 ± 0.41	2.49 ± 0.44	–	–
IAVLPRYVEIRTFEPRLLVQSIEL [VPS39]	2.97 ± 0.57	2.88 ± 0.38	–	–
IDEYCVQQLKEFDGKSLVSVTKEG [HSP90AB1]	5.19 ± 0.25	4.99 ± 0.14	–	–
IDGVATTRYSVAGLSPYSDYEFRV [PTPRD]	2.02 ± 0.24	2.02 ± 0.29	–	–
IEGAPEVTMSSLFKHILRTEGAFG [SLC25A25]	2.31 ± 0.39	2.63 ± 0.13	–	–
IFCIKRFTKNNFFVEKNPTIVNFP [USP39]	3.02 ± 0.74	2.38 ± 0.76	–	–
IFLFQDILVLTRPVTRNERHSYQV [NET1]	2.58 ± 0.28	2.27 ± 0.27	–	–
IGLRLVLEYLYTANVTLSLDTVEE [KLHL14]	2.96 ± 0.5	3.02 ± 0.47	–	–
IGNLVKILHGTRGELLLDVAWHPV [RBBP5]	2.72 ± 0.41	2.65 ± 0.43	–	–
IGRAAGTGFTVNVAWNGPRMGDAD [HDAC6]	3.02 ± 0.28	3.15 ± 0.32	–	–
IHAYNLGTNAWEEIATKPHEKIGF [KLHDC10]	2.48 ± 0.15	2.57 ± 0.54	–	–
IHPKNPHAPTIHFNYRYFEVEEAD [CPOX]	3.75 ± 0.18	3.88 ± 0.17	–	–
IKELYENFCKHNGSKNVFSTFRTP [ATL3]	2.24 ± 0.36	2.29 ± 0.39	–	–
IKQIQQLFEEILSNSRQLKWLSCG [FBXO33]	3.57 ± 1.6	1.94 ± 0.58	–	–

Sequence	protein stability index [1]	protein stability index [2]	protein stability index [3]	protein stability index [4]
ILELVVLEQFVAILPKELQTWVRD [ZNF24]	2.35 ± 0.54	2.45 ± 0.46	–	–
ILGPSSAYTQTQFHNLRNTLDGYG [NFE2L1]	2.46 ± 0.17	2.33 ± 0.25	–	–
ILVLTRPVTRNERHSYQVYRQPIP [NET1]	2.33 ± 0.51	2.11 ± 0.38	–	–
IMTVKEDQFSALGLDPCLLEDELD [SLC6A17]	4.45 ± 0.33	4.46 ± 0.3	–	–
INNGDFEAYTKICDPGLTAFEPEA [CAMK2D]	4.08 ± 0.41	4.36 ± 0.18	–	–
INSIIHNPRAPVIIYKQTKGGVQN [CEP70]	2.86 ± 0.43	3.34 ± 0.51	–	–
IPAGARDIQIVERKKSADVLALAD [ADAMTSL2]	4.68 ± 0.32	4.86 ± 0.38	–	–
IPVAMEHQPPYIIAVLPRYVEIRT [VPS39]	2.6 ± 0.48	2.44 ± 0.46	–	–
IQAINGESTELMTHLEAQNRIKGC [PDLIM4]	4.1 ± 0.19	4.15 ± 0.14	–	–
IRHNLSLNKCFIKVPREKDEPGKG [FOXJ1]	3.78 ± 0.3	3.9 ± 0.2	–	–
IRLKESINCQLSDPSSTKPGTLLK [TRIM14]	3.28 ± 0.3	3.48 ± 0.33	–	–
IRMIQEEKESTELRAEEIETRVTS [PPFIA4]	5.22 ± 0.33	5.21 ± 0.38	–	–
ISCVICNDIMAYMFGFFFGRTPLI [CDS2]	3.31 ± 0.35	2.92 ± 0.48	–	–
ISEKLTLLPTLYEIHSKTTAYSRL [RNF180]	2.51 ± 0.29	2.06 ± 0.085	–	–
ISRAQYNALTLTFQRAMHDYNQAE [STX11]	2.21 ± 0.14	2.35 ± 0.14	–	–
ISSGVVSIWAQNQVENWSAFAPDF [RBBP5]	2.44 ± 0.3	2.4 ± 0.25	–	–
KAEELDRRERELQHAALGGTATRQ [SCAMP3]	5.15 ± 0.12	5.21 ± 0.22	–	–
KAQLLEQAQGQLRELLDRAMREAI [SOAT2]	2.29 ± 0.33	2.37 ± 0.42	–	–
KDAPCYESDTDIYETVAAATSEST [DRICH1]	5.4 ± 0.15	5.38 ± 0.1	–	–
KDGKAFHPTYEEKLKLVALHKQVL [ACBD3]	2.68 ± 0.33	2.65 ± 0.11	–	–
KDLDGMDADILGLKKSNSAPSKKA [FBF1]	5.03 ± 0.22	5 ± 0.18	–	–
